The numbers were not newly measured in article PMC5323041, which cites them from elsewhere.

Like-named read-outs stand apart in the source and are kept apart here.

Data set [1] addresses oxytocin (Mus musculus) (UniProt P35454).
Data set [2] shares this target. This is another data set of the same source.

Chain of UniProt P35454 (P35454 whole entry, looked up): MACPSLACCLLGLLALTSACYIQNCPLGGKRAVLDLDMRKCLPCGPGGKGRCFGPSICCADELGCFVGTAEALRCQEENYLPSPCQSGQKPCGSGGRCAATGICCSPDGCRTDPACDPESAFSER

The term Kd denotes the constant that tells how readily two partners part at equilibrium. In the case of “vasopressin V1a receptor (from UniProt Q62463)”, the Kd with oxytocin (Mus musculus) [1] is 25 nM. Consider oxytocin receptor (from UniProt P97926), for which the Kd with oxytocin (Mus musculus) [2] was 1 nM.
